First the molecules themselves.
B1: HDV Ribozyme (parent)
chain: GGCCGGCAUGGUCCCAGCCUCCUCGCUGGCGCCGGCUGGGCAACAUUCCGAGGGGACCGUCCCCUCGGUAAUGGCGAAUGGGACCCA

The data set covers variants of B1. The experiment in a line: self-cleavage, relative activity (ratio to wild type); higher = more cleavage; co-transcriptional.
For the variant GGCCGACAUGGUCCCAGCCUCCUCGCUGGCGCCGGCUGGGCAACAUUCCGAGGGGACCGUCCCCUAGGUAAUGGCGAAUGGGACCCA [G6A C66A], the self-cleavage came to 0.724.
The value for GGCCGGCAUGGUCCCAGCCUACUCGCUGGCGCCGGCUGGGCAACAUUCCGAGGAGACCGUCCCCUCGGUAAUGGCGAAUGGGACCCA [C21A G54A] was 0.0437; that for GGCCGGCAUGGUCCCAGCCUCCUCGCUGGCGCCGGCUGCGCAACAUUCCAAGGGGACCGUCCCCUCGGUAAUGGCGAAUGGGACCCA [G39C G50A] was 0.246; that for GGCCGGCAUGGUCCCAGCCUCCUCGCUGGCGCCGGCUGGGCAACAUUCCGAGGUGACCGUCUCCUCGGUAAUGGCGAAUGGGACCCA [G54U C62U] was 0.98.
The value for GGCCGGCAUGGUCCCAGCCUCCUCGCUGGCGCCGGCUGGGCAAGCUUCCGAGGGGACCGUCCCCUCGGUAAUGGCGAAUGGGACCCA [C44G A45C] was 0.578; that for GGCCGGCAUGGUCGCAGCCUCCUCGCUGGCGCCGGCUGGGCAACAUUCCGAGGGGACCGUCUCCUCGGUAAUGGCGAAUGGGACCCA [C14G C62U] was 0.554.
With GGCCGGCAUGGUCCCAGGCUCCUCGCUGGCGCCGGCUGGGCAACAUUCCGAGGGGAGCGUCCCCUCGGUAAUGGCGAAUGGGACCCA [C18G C57G], the self-cleavage is 0.133.
The value for GGCCGUCAUGGUCCCAGCCUCCUCGCUGGCGCCGGCUGGGCAACAUUCCGAGGGGUCCGUCCCCUCGGUAAUGGCGAAUGGGACCCA [G6U A56U] was 0.703; that for GGCCGGCAUGGUCCCAGCCCCCUCGCUGGCGCCGGCUGGGCAACAUUCCGAGGGGACCGUCCCCUCGGUAAUGGCGAAUGGGACCUA [U20C C86U] was 0.138.
The value for GGCCGUCAUGGUCCCAGCCUCCUCGCUGGCGCCGGCUGGGCAACAUUCCGAGGGGACUGUCCCCUCGGUAAUGGCGAAUGGGACCCA [G6U C58U] was 0.617.
The value for GGCCGGCAUGCUCCCAGCCUCCUCGCUGGCGCCGGCUGGGCAACAUUCCGAGGGGACCGUCCCCUCGGUCAUGGCGAAUGGGACCCA [G11C A70C] was 0.32.
Take GGCCGGCAUGGUCCCAGCCUCCUCGUUGGCGCCGGCUGGGCAACAUUCCGAGGGGACCGUCACCUCGGUAAUGGCGAAUGGGACCCA [C26U C62A]: the self-cleavage turned out to be 1.08.
For the variant GGCCGGUAUGGGCCCAGCCUCCUCGCUGGCGCCGGCUGGGCAACAUUCCGAGGGGACCGUCCCCUCGGUAAUGGCGAAUGGGACCCA [C7U U12G], the self-cleavage was 1.02.
The value for GGCCGGCAUGGUCCCCGCCUCCUCGAUGGCGCCGGCUGGGCAACAUUCCGAGGGGACCGUCCCCUCGGUAAUGGCGAAUGGGACCCA [A16C C26A] was 0.831; that for GGCCGGCAUGGUCCCAGCCUCCUCGCUGGCGCCGGCUGGGCAACAUUCCGAGGGGACCGUCCCCUCGGGAAUGGCGACUGGGACCCA [U69G A78C] was 0.332.
The value for GGCCGGCAUGGUCCCAGCCUCCUCGCUGGCGACGGCUGGGCAACAUUCCGAGGGGACCGUCCCCUCGGUAAUGGCGAUUGGGACCCA [C32A A78U] was 0.0923.
Regarding GGCCGGCAUGGACCCAGCCUCCUCGCUGGCGCCGGCUGGGCAACAUUCCGAGGGGACCGUCCCCUCGGUAAUGGCGAAUGGGACCUA [U12A C86U], the self-cleavage is 0.178.
The value for GGCCGGCAUGGUCCCAGCCUCCUCGCUGGCGCCGGCUGGGCAACAUCCCGAGGGGACCGUUCCCUCGGUAAUGGCGAAUGGGACCCA [U47C C61U] was 0.872; that for GGCCGGCAUGGUCCCAGCCUCCUUGCUGGCGCCGGCUGGGCAACAUUCCGACGGGACCGUCCCCUCGGUAAUGGCGAAUGGGACCCA [C24U G52C] was 0.884; that for GGCCGGCAUGGUGCCAGCCUCCUCGCUGGCGCCGGCAGGGCAACAUUCCGAGGGGACCGUCCCCUCGGUAAUGGCGAAUGGGACCCA [C13G U37A] was 0.17.
The value for GGCCGGCAUGGUCCCAGCCUGCUCGCUGGCGCCGGCUGGGCAACAUACCGAGGGGACCGUCCCCUCGGUAAUGGCGAAUGGGACCCA [C21G U47A] was 0.0773; that for GGCCGGCAUGGUCCCAGCCUCCUCGCUGGCGCCGGCUGGGCAACAUUCAGAGGGGACCGUCCCCUCGGUAAUGGCGAAUGGGUCCCA [C49A A83U] was 0.719.
The value for GGCCGGCAUGGUCCCAGCCUCCUCGCUGGCGCCGGCUGGGCAACAUUCCGGGGGGACCGUCCCCUCGGUAAUGGCGAAUGGGACUCA [A51G C85U] was 0.743.
As for GGCCGGCAUGGUCCCAGCCUCCUCGGUGGCGCCGGCUGGGCAACAUUCCGAGGGGACCGUCCCCUCGGUAAUGCCGAAUGGGACCCA [C26G G74C], the self-cleavage is 0.0573.
The value for GGCCGGCAUGGUCCCAGGCUCCUCGCUGGCGCCGGCUGGGCAACAUUCCGAGGGAACCGUCCCCUCGGUAAUGGCGAAUGGGACCCA [C18G G55A] was 0.145; that for GGCCGGCAUGGUCCCAGCGUCCUCGCUGGCGCCGGCUGGGCAACAUUCCGAGGGGACCGCCCCCUCGGUAAUGGCGAAUGGGACCCA [C19G U60C] was 0.0627; that for GGCCGGCAUGGUCCCAGCCUCCUCGCUGGCGCCGGCUGGGCAACAUUCAGAGGGGACCGUCCCCUCGGUAAUGGCGAAUAGGACCCA [C49A G80A] was 0.479.
The value for GGACGGCAUGGUCCCAGCCUCCUCGCUGGCGCCGGCUGGGCAACAUUCCGACGGGACCGUCCCCUCGGUAAUGGCGAAUGGGACCCA [C3A G52C] was 0.676; that for GGCCGGCAUGGUCCCAGCCUCCUCGCUGUCGCCGGCUGGGCAACAUUUCGAGGGGACCGUCCCCUCGGUAAUGGCGAAUGGGACCCA [G29U C48U] was 0.0959.
For GGCCGACAUGGUCCCAGCCUCCUCGCUGGCGCCGGCUGGGCAACAUUCCGAGGGGACCGUCCCCUCGGUAAGGGCGAAUGGGACCCA [G6A U72G], the self-cleavage stood at 0.246.
For the variant GGCCGGCAUGGUCCCAGCCUCCUUGCUGGCGCCGGCCGGGCAACAUUCCGAGGGGACCGUCCCCUCGGUAAUGGCGAAUGGGACCCA [C24U U37C], the self-cleavage came out at 0.753.
For the variant GGCCGGCAUGGUCCCAGCCUCCUCGCUGACGCCGGCUGGGCAACAUUCCCAGGGGACCGUCCCCUCGGUAAUGGCGAAUGGGACCCA [G29A G50C], the self-cleavage was determined as 0.121.

The values are drawn from the RNAGym collection of RNA variant scans (doi:10.7554/elife.80360).
